This is an account of results in patent US20250195637A1.

The target of experiment [1] is Wild-type F protein from the hMPV strain rC-85473 (human metapneumovirus (hMPV), strain rC-85473) (UniProt Q6WB98). The experiment in a line: flow cytometry, HMPV24-A647 on LLC-MK2 cells infected with Bivalent Metavac®-RSV v.2.
Experiment [2] shares this target. As to the kind of experiment: flow cytometry, HMPV24-A647 on LLC-MK2 cells infected with rC-85473. (A flow cytometer gives signals particle by particle.)
Experiment [3] shares this target. As to the kind of experiment: flow cytometry, HMPV24-A647 on LLC-MK2 cells infected with Bivalent Metavac®-RSV v.3.
Experiment [4] has the same target. As to the kind of experiment: flow cytometry, HMPV24-A647 on LLC-MK2 cells infected with Bivalent Metavac®-RSV v.1.
The target of experiment [5] is F RSV v.1, native (wild-type) F protein of hRSV, RSV A2 strain (human respiratory syncytial virus (hRSV), RSV A2 strain) (UniProt P03420). As to the kind of experiment: flow cytometry, Palivizumab-PE on LLC-MK2 cells infected with Bivalent Metavac®-RSV v.1.
Experiment [6] has as its target F RSV v.2, mutated F protein from hRSV corresponding to the stabilized prefusion state (human respiratory syncytial virus (hRSV), RSV A2 strain, mutated) (UniProt P03420). The experiment in a line: flow cytometry, Palivizumab-PE on LLC-MK2 cells infected with Bivalent Metavac®-RSV v.2.
Experiment [7] concerns the target F RSV v.3, chimeric HMPV/RSV stabilized F pre-fusion form (mutated extracellular domain of F protein from hRSV with transmembrane and cytoplasmic domains of F protein from hMPV C-85473) (chimera of hRSV (RSV A2 strain, mutated) and hMPV (C-85473)). As to the kind of experiment: flow cytometry, Palivizumab-PE on LLC-MK2 cells infected with Bivalent Metavac®-RSV v.3.

“Monoclonal mouse antibody detecting the F HMPV protein (MAb HMPV24 BioRad MCA 4674)”: the Infected cells expressing HMPV-F [%, GFP and A647 positive cells] in experiment [1] worked out at 94.8%; in experiment [2] it was 98.9%; in experiment [3] it was 85.2%; in experiment [4], 94.8%.
Consider “Palivizumab Synagis® AstraZeneca, monoclonal humanized antibody detecting both pre-fusion and post-fusion forms of the F RSV protein”, for which the values for the Infected cells expressing RSV-F [%, GFP and PE positive cells] in experiment [5], in experiment [6] and in experiment [7] were 65.5%, 54.6% and 47.2%, respectively.
